Assay [1] concerns the target Lsp1, C-terminally tagged with mVenus or mCerulean (S. cerevisiae) (UniProt Q12230). The assay is described as follows: FRET or BRET.
Assay [2] has the same target. The assay is described as follows: FRET or BRET. This is another data set of the same source.
Assay [3] shares this target. Nature of the assay: FRET or BRET. This is another data set of the same source.
For assay [4], the target named is Pil1, C-terminally tagged with mVenus or mCerulean (S. cerevisiae) (UniProt P53252). Nature of the assay: FRET or BRET.
Assay [5] has the same target. Nature of the assay: FRET or BRET. This is another data set of the same source.
The target is the same in assay [6]. The assay is described as follows: FRET or BRET. This is another data set of the same source.
The target is the same in assay [7]. The assay is described as follows: number and brightness.
The target is the same in assay [8]. The assay is described as follows: FRET or BRET. This is another data set of the same source.
For assay [9] the target is unchanged. The assay is described as follows: FRET or BRET. This is another data set of the same source.
For assay [10] the target is unchanged. The assay is described as follows: FRET or BRET. This is another data set of the same source.
Assay [11] shares this target. Nature of the assay: FRET or BRET. This is another data set of the same source.

Read-outs that look alike come from different tables or passages of the source.

Take “Lsp1, C-terminally tagged with mVenus or mCerulean (from UniProt Q12230 1-341) (natural protein)”: the FRET efficiency in [1] was determined as 30%; in [2], 20%; in assay [3], 20%.

Regarding “Pil1, C-terminally tagged with mVenus or mCerulean (from UniProt P53252 1-339) (natural protein)”, the FRET efficiency in assay [4] is 20%; in assay [5], 15%; in [6] it was 10%; in [8] it was 10%; in [9] it was 28%; in [10], 18%. The same substance returned an FRET efficiency in assay [11] of 5%. In [7], this substance had a percent of Pil1-mVenus that corresponds to oligomers of 8%.

For the origin of these results see publication PMC4390835.
